Target: chymotrypsin (Bos taurus, UniProt P00766)
Assay: Dynamic light scattering heteroassociation experiment (rh vs molar ratio of the two proteins, fitted)
Assay type: binding
Procedure: The method begins with sample preparation to be described presently. The DLS data are collected, and then analyzed in a four-step procedure. First, the concentrations of all components in a solution at a given time are calculated from postulated stoichiometries, association constant(s), Ka, and the known a priori concentrations of the stock solutions of the constituent molecule(s). […] Third, the modeled concentration data and modeled hydrodynamic radius data are combined to model the expected dynamic light scattering data at each sample ratio. Fourth, a best fit of the models to the collected DLS data is obtained. Thus, some or all parameters are adjusted to produce a best fit to the DLS data. Such fitting might be achieved using a least squares method, for example. These four steps of data analysis are discussed in detail in the following, and variations are possible, as would be apparent to one skilled in the art of DLS or particle associations.
In this example, to prepare the sample series for both self- and hetero-association, two stock solutions are mixed manually. For analysis of hetero-association, a high concentration, on the order of 0.5 mg/mL, solution of each pure molecule is prepared in the same solvent. For larger molecules, such as those greater than, say, 50 kDa, lower concentrations may be used. For analysis of self-association reactions, the molecular solution is prepared at the highest concentration to be tested; the second solution is the pure solvent in which the sample molecule was prepared. All solutions are filtered through a 0.02 μm filter.
For either type of analysis, aliquots of the two solution mixtures are dispensed into a 1536 well microtiter plate in a series of ratios from 100% A:0% B to 0% A:100% B, or some subset thereof, where the number of ratios prepared depends upon the desired detail of analysis. Typically, 10-20 ratios are used.
Following the dispensing of the sample, the microtiter plate is centrifuged at a rate and duration sufficient to remove any bubbles present in the samples; typically 1000 g for 15 seconds. Wells may then be covered to avoid evaporation, for example, by dispensing approximately 10 μL of paraffin oil into each well. The plate is then re-centrifuged prior to being placed into a dynamic light scattering instrument programmed, for example, to make 25 one-second dynamic light scattering measurements per well.
As an example of the inventive method, we consider two species A and B associating to form species AB with equilibrium association constant KAB: A+B ? AB. In this example we will use fitting procedure C, using the average hydrodynamic radius found by fitting the autocorrelation function measured for each sample to a cumulants model. We will assume that Equation (11) is valid. […]

## lysozyme: protein, 14.4 kDa, negative control
Negative control, FIG. 5
  binding to chymotrypsin (in words): no binding
Negative control, pH 6.7
  association constant: 0

B1: soybean trypsin inhibitor: protein, molar mass of 22 kDa, binds chymotrypsin (protein, UniProt P01070 25-205, looked up)
Trypsin inhibitor A: DFVLDNEGNPLENGGTYYILSDITAFGGIRAAPTGNERCPLTVVQSRNELDKGIGTIISSPYRIRFIAEGHPLSLKFDSFAVIMLCVGIPTEWSVVEDLPEGPAVKIGENKDAMDGWFRLERVSDDEFNNYKLVFCPQQAEDDKCGDIGISIDHDDGTRRLVVSKNKPLVVQFQKLDKESL
DLS fit, rAB={rA^a+rB^a}^1/a
  a value (association conformation parameter): 2.26
DLS fit, soybean trypsin inhibitor fitted with an incompetent fraction of chymotrypsin
  association constant: 3.8e+06 M⁻¹
